{
  "source": "paper PMC7917791",
  "molecular_target": "HAP1 phage capsid (T4 phage mutant with a nonsense mutation in the hoc gene, no functional Hoc protein on the capsid) (T4 phage (mutant HAP1))",
  "test": "SEC; RFP-Hoc and new HAP1 virions produced together in infected E. coli; filtered lysate on Sepharose 4B (2.5 x 95 cm), 0.063 M phosphate buffer pH 7.2, 0.3 mL/min; phages eluted in the highest molecular weight fraction (A), non-incorporated RFP-Hoc in fraction B; fluorescence and titer of the fractions measured",
  "data": [
    {"substance": "RFP-Hoc fusion (red fluorescent protein fused to the N-terminal end of the T4 phage Hoc protein) (from UniProt P18056 1-376) (natural protein)", "values": [
      {"measurement": "fluorescence of the phage fraction A after size exclusion chromatography", "result": "5.12e+06", "unit": "a.u."}
    ]}
  ]
}
